# Reference: PMC7478896, “EphrinB2-EphB4 signalling provides Rho-mediated homeostatic control of lymphatic endothelial cell junction integrity” (eLife, 2020)
# T1: EphB4 (human (endogenous in HDLEC), UniProt P54760 16-987)
# T1 sequence (looked up): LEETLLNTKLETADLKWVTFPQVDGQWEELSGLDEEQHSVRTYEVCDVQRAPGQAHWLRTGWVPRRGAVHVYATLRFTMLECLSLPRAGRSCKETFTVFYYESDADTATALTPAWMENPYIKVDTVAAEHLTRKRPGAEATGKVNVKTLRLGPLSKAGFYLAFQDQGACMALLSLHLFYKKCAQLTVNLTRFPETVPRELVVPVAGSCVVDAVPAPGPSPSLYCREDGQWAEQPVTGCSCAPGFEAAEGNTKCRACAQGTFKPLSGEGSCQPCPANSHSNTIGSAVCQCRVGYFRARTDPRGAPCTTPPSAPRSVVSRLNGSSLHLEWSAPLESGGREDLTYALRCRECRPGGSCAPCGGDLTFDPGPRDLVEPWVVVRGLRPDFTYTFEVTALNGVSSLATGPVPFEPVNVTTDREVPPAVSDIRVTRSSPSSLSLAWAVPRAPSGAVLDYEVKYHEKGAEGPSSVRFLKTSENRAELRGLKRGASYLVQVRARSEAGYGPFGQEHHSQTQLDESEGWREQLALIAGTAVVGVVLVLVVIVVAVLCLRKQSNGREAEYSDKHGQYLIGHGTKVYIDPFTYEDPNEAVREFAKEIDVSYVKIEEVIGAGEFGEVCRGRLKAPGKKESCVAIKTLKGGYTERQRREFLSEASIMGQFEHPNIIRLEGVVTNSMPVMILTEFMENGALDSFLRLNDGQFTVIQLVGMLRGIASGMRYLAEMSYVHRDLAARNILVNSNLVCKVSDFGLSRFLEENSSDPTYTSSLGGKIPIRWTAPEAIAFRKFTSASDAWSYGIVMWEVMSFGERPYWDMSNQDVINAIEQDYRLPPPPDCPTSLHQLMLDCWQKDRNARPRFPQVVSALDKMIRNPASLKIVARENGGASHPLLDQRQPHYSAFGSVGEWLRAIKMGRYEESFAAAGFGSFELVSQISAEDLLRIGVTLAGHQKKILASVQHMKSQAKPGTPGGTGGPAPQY
# B1: recombinant human EphrinB2-Fc (Fc fusion, UniProt P52799 28-229, looked up)
# chain: IVLEPIYWNSSNSKFLPGQGLVLYPQIGDKLDIICPKVDSKTVGQYEYYKVYMVDKDQADRCTIKKENTPLLNCAKPDQDIKFTIKFQEFSPNLWGLEFQKNKDYYIISTSNGSLEGLDNQEGGVCQTRAMKILMKVGQDASSAGSTRNKDPTRRPELEAGTNGRSSTTSPFVKPNPGSSTDGNSAGHSGNNILGSEVALFA
# Target: T1, EphB4
# Experiment: cell-based or functional assay
binder,measurement,value
B1,Rac1 activity (Rac1-GTP pull-down) in HDLECs after 30 min stimulation with 0.5 µg/ml clustered EphrinB2-Fc,2 fold
